The subject of test [1] is CSM14.1 cells. The test is described as follows: Apoptosis of CSM14.1 cells induced by various stimuli. Format: cell-based, rat. As to the method: (A-D) CMS14.1 neuronal cells were transfected with plasmids encoding Flag-HN peptide or Flag-control (27-amino-acid) peptide, together with GFP-encoding plasmid at 4:1 ratio. Cells were either cultured without further treatment (open bars) or subjected to various apoptotic stimuli for various times (dark bars), including (A) STS for 8 h (dark symbols=Flag-control; open symbols=Flag-HN), (B) Serum-deprivation for 72 h, (C) 10 joules/m2 Uvirradiation followed by 24 h culture, and (D) 50 ng/ml TNFa in […] for 24 h. Cells were then fixed and stained with DAPI to determine the percentage of apoptotic cells, evaluating=200 GFP-positive cells per sample (mean±SD; n=3). (inset) Lysates prepared from replicate cultures of transfected cells were normalized for total protein content and analyzed by immunoblotting using anti-Flag (top) and anti-tubulin (bottom) antibodies, confirming production of similar amounts of Flag-control and Flag-HN peptides. (E) SF268 cells were transfected with Humanin siRNA (HN-siRNA) (dark bars) or mutant siRNA containing two mismatches (mut-siRNA) as negative control (open bars). (Upper panel) After 72 hr, cell lysates were prepared and 100 ug was analyzed by immunoblotting using anti-HN and anti-tubulin (as a loading control) antibodies. (Lower panel) At 72 hr after siRNA transfection, SF268 cells were cultured with 0.1 μM STS for 8 hrs, then % apoptosis was determined (mean+std dev; n=3). (F) HN protects against Bax- but not Bak-induced apoptosis. CSM14.1 neuronal cells were co-transfected with pcDNA3-HA-Bax or pcDNA3-HA-Bak together with plasmids encoding with GFP (indicated by “-”), GFP-HN, or GFP-HN(C8P). Apoptosis (%) was measured 48 hrs later among GFP-positive cells. (G) Humanin inhibits STS-induced apoptosis in wild type HCT116 cells, but not HCT116 BAX -/- cells. HCT116 cells heterozygous or homozygous for BAX gene inactivation were transfected with plasmids encoding GFP (open bars) or GFP-HN (dark bars). After 24 h, cells were cultured without (C) or with STS (0.2 μM for wild type and 1.0 μM for Bax - /- cells) for 8 h, then % apoptosis was determined for GFP-positive cells (mean+std dev; n=3). (inset) Lysates from the cells were analyzed by immunoblotting (20 ug) using anti-Bax (top) and anti-Bid (bottom) antibodies. (H) HN prevents Bax-induced cell death in yeast. Cells were co-transformed with YEp51-Bax (encoding Bax under control of a GAL10 promoter) and plasmid control (C) or plasmids encoding Humanin or Humanin(C8P) fusion polypeptides. Cells initially grown in glucose-containing medium were streaked onto either glucose (top) or galactose (bottom) plates to suppress or induce Bax expression, respectively.
For these experiments, Flag-epitope tagged Humanin (Flag-HN) or Flag control polypeptides were expressed in CSM14.1 cells, an immortalized rat hippocampal neuronal cell line that has been used as a model for neuronal apoptosis studies (Kermer et al., Cell Death Differ. 9:405-413 (2002)). Apoptosis of CSM14.1 cells induced by Staurosporine (STS), UV-irradiation, and serum-deprivation was suppressed by Flag-HN (FIG. 6A-C). […] Note that at higher doses of STS (FIG. 6A), Humanin-mediated protection was overcome, indicating Humanin-insensitive mechanisms of apoptosis induction exist, even when using a mitochondria-dependent death stimuli.
Apoptosis assays were performed as follows. […]

The conditions of test [2]: previously reported (Hashimoto et al.); cited from earlier work.
In test [3] the target is T1, Bax (Homo sapiens, UniProt Q07812). Briefly: Suppression of apoptosis induced by Bax over-expression (Humanin mutants). It is filed as cell-based. On the set-up: expressed in transfected cells; host or cells: HEK293T. Conditions: GFP-fusion polypeptides, 3:1 ratio of HN:Bax plasmid DNA. The protocol:
(§1) Apoptosis assays were performed as follows. Both floating and adherent cells (after trypsinization) were collected 48 hr after transfection, fixed, and stained using 4′,6-diamidine-2′-phenylindole dihydrochloride (DAPI) for assessing apoptosis based on nuclear fragmentation and chromatin condensation (Fields and Song, supra (1989)).
(§2) In order to explore whether a correlation exists between Humanin binding to Bax and Humanin-mediated suppression of apoptosis, Bax was co-expressed with various GFP-fusion polypeptides encoding wild-type, full-length Humanin or various truncation and site-specific mutants of Humanin (Table 1). Expression of all GFP-fusion polypeptides was confirmed by immunoblotting, and ability to bind Bax was determined by co-immunoprecipitation assay. Each Humanin mutant was scored for ability to suppress apoptosis induced by Bax over-expression by >50% using a 3:1 ratio of HN:Bax plasmid DNA. […] Based on these studies, an active region of the 24 amino-acid Humanin peptide, mapped to residues 7-17.
Cell culture and transfections were performed as follows. CSM14.1, HCT116, Cos-7, and SF268 cells were cultured in DMEM high glucose media (Irvine Scientific, Santa Ana, Calif.) containing 10% fetal bovine serum (FBS). PC-3 cells were cultured with RPMI 1640 media containing 10% FBS. Transfection of cells was performed using SuperFect (Qiagen, Chatsworth, Calif.) or LipofectaminePLUS reagent ([…]).

Test [4] addresses T1, Bax. The test is described as follows: Co-immunoprecipitation of GFP-Humanin fusion polypeptides with Bax in transfected cells. Conditions: for Bax binding: GFP-fusion polypeptides, co-immunoprecipitation. On the set-up: expressed in transfected cells; host or cells: HEK293T; key to Bax binding: +: ability to bind Bax was determined by co-immunoprecipitation assay; −: lacked Bax-binding activity. Format: binding.
Text: Humanin (HN) cDNA was sub-cloned into a Green Fluorescence Protein (GFP) expression vector GFP-Cl at the Xhol/Hind III sites, producing a GFP-HN fusion polypeptide. GFP and GFP-HN were transfected into 293T cells with pcDNA3-HA-Bax. Cell lysates from these cells were immunoprecipitated with anti-GFP antibody and subsequently blotted with anti-HA antibody. The lysates were also blotted with ani-GFP antibody to confirm polypeptide expression. […] The data shown were obtained using the cytosolic form of Humanin; however, both cytosolic and mitochondrial forms of Humanin were tested and the results were the same.
Co-immunoprecipitation assays were performed using Humanin polypeptides expressed as fusion polypeptides with the Green Fluorescent Protein (GFP) in human cells. Wild-type Humanin fused to GFP is referred to as GFP-HN and a mutant form of Humanin, where the cysteine at position 8 is replaced with proline, fused to GFP is referred to as GFP-C8P. […] Immunoblot analysis of lysates of the transfected cells confirmed production of all proteins. In addition, GFP-HN also coimmunoprecipitated endogenous Bax from cell lines, which contain relatively high levels of the Bax protein.
Immunoblotting and immunoprecipitations were performed as follows. Immunoblotting was performed as described previously (Fields and Song, Nature 340:245-246 (1989)). For co-immunoprecipitations, cells were cultured in 50 uM […] Valine Alanine Asparate fluoromethyl-ketone (zVAD-fmk) to prevent apoptosis. Cells were suspended in lysis buffer (50 mM Tris-HCl, pH7.4; 150 mM NaCl; 20 mM EDTA; 50 mM NaF; 0.5% NP-40; 0.1 mM Na3VO4; 20 ug/ml Leupeptin; 20 ug/ml Aprotinin; 1 mM DTT; and 1 mM PMSF). Lysates (200 ul diluted in 1 ml final volume of lysis buffer) were cleared by incubation with 15 ul of protein G-Sepharose 4B (Zymed) and then incubated with 15 ul of polyclonal antibody and 15 ul of protein G at 4° C. overnight. Beads were then washed 4 times with 1.5 mls lysis buffer before boiling in Laemmli sample buffer and performing SDS-PAGE/immunoblotting.
as §2

In test [5] the target is T1, Bax. Briefly: Bax-induced apoptosis in transfected neuronal cells (DAPI staining). It is filed as cell-based. On the set-up: expressed in transfected cells. The protocol: (A) HEK293T cells were transfected with pcDNA3-HA-Bax together with plasmids encoding GFP, GFP-HN(N), or GFP-HN(M). Cell lysates were immunoprecipitated with polyclonal anti-GFP antibody. Immunoprecipitates (IP) or cell lysates were analyzed by immunoblotting using anti-HA or anti-GFP antibodies, respectively. (B) CSM14.1 neuronal cells were co-transfected with pcDNA3-HA-Bax together with plasmids encoding GFP, GFP-HN(N), or GFP-HN(M). Percent apoptosis was determined 48 h later by DAPI staining (mean±SD; n=3).
(§3) Rat neuronal cell line CSM14.1 cells were transfected with various plasmids using the Lipofectamine reagent (Invitrogen). For transfection, 10×10^5 cells were plated per well using 6 well plates. Each well received 1 μg DNA plus […] of Lipofectamine. After 24 hours of transfection, the percentage of cell death was determined using 4′-6-diamidino-2-phenylindole (DAPI) staining. […] The data shown were obtained using the cytosolic form of Humanin; however, both cytosolic and mitochondrial forms of Humanin were tested and the results were the same.
as §1
Since Humanin co-immunoprecipitates with Bax but not Bak, the effects of Humanin over-expression on apoptosis induced by these members of the Bcl-2 family was compared. […] Similar results were obtained regardless of whether Humanin was fused to the N- or C-terminus of GFP, with both of these GFP fusion polypeptides localizing to the cytosol of cells.

Test [6] deals with T2, t-Bid (Homo sapiens, UniProt P55957).
T2 sequence (P55957 61-195 limits assumed): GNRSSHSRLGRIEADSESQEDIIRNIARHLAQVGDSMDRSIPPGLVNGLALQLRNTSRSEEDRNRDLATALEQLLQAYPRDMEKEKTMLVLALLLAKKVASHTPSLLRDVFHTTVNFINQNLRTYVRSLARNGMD
The test is described as follows: Bid-induced apoptosis in CSM14.1 cells (DAPI staining). It is filed as cell-based. Details: expressed in transfected cells; host or cells: CSM14.1 rat hippocampal neuronal cells. Conditions: 24 hours after transfection. The protocol:
Apoptosis was examined by DAPI staining. The data shown were obtained using the cytosolic form of Humanin; however, both cytosolic and mitochondrial forms of Humanin were tested and the results were the same.
as §3

No end group written: not given here.

T1 sequence (Q07812 whole entry, species assumed, the tested form may be a part): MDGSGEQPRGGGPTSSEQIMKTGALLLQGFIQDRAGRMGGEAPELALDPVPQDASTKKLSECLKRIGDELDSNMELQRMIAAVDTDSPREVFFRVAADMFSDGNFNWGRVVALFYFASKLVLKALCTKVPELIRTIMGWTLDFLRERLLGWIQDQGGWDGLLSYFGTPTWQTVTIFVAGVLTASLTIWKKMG

For “Flag-HN: Flag-epitope tagged Humanin expressed in cells (MAPRGFSCLLLLTSEIDLPVKRRA; also: Flag epitope tag; UniProt Q8IVG9 1-24, looked up)”, in test [1], the “apoptosis induced by UV-irradiation” value is on record as “suppressed” and the “apoptosis induced by serum-deprivation” value is on record as “suppressed”. Moreover, the “apoptosis induced by TNF” value in test [1] (Bax-independent death stimulus) was “not suppressed”. In addition, the “apoptosis induced by Staurosporine (STS)” value in test [1] (STS 8 h) is on record as “suppressed”. Further, the “protection at higher doses of STS” value in test [1] (higher doses of STS) is on record as “overcome”.

Regarding “GFP-HN(C8P): mutant Humanin, cysteine at position 8 replaced with proline, fused to GFP (MAPRGFSPLLLLTSEIDLPVKRRA; also: fused to GFP; UniProt Q8IVG9 1-24, looked up, variant C8P)”, in test [2], the “anti-apoptotic activity when expressed in cells” value was “lack anti-apoptotic activity”. Also, the Bax suppression entry in test [3] is on record as “− (failed to protect against Bax-induced apoptosis)”. In test [4] (293T/HEK293T cells, anti-GFP immunoprecipitation), the “co-immunoprecipitation with tagged Bax” value is reported as “did not”. The Bax binding entry in test [4] is “−”. In addition, the “suppression of apoptosis induced by Bax” value in test [5] (CSM14.1 or PC-3 cells, transient co-transfection) is “did not suppress”.

In the case of “Humanin (C8A): mutant form of Humanin where the cysteine at position 8 was mutated to an alanine (MAPRGFSALLLLTSEIDLPVKRRA; also: fused to GFP; UniProt Q8IVG9 1-24, looked up, variant C8A)”, the Bid-induced apoptosis result in test [6] is given as “not able to decrease”. Also, in test [5] (CSM14.1 cells, 24 hours after transfection, DAPI), the Bax-induced apoptosis result is on record as “not able to decrease”.

Turning to “L9R: GFP-fusion of Humanin site-specific mutant L9R (MAPRGFSCRLLLTSEIDLPVKRRA; also: fused to GFP; UniProt Q8IVG9 1-24, looked up, variant L9R)”, the “anti-apoptotic activity when expressed in cells” value in test [2] is listed as “lack anti-apoptotic activity”. For the same substance, in test [3], the Bax suppression result is on record as “− (failed to protect against Bax-induced apoptosis)”. In test [4], the Bax binding entry is listed as “−”.

The values are drawn from patent US7422862B2, “Methods for identifying modulators of apoptosis” (The Burnham Institute, priority 2001, dated 2008).
